From patent publication US20130252887A1 (BETH ISRAEL DEACONESS MEDICAL CENTER, published 2013)

B1: dimeric inhibitor A1-A1 (two A1 ligand-binding LA modules of ApoER2 connected by a Gly-Ser-Ser-Gly linker) (designed binder)
chain: AECEEDQFRCRNERCIPLVWRCDEDNDCSDNSDEDDCGSSGCEEDQFRCRNERCIPLVWRCDEDNDCSDNSDEDDCEA
B2: monomeric A1 (first LA module of mouse ApoER2, residues 12-47 of the mature protein) (receptor)
chain: not shown
notes: range 12-47; Residues 12-47 are counted on the mature protein, not the precursor; also called A1 module

Key:
[1] = target: T1, Beta2-glycoprotein I (β2GPI), full-length, human (human, UniProt P02749 20-345); test: inhibition of binding of 10 nM β2GPI purified from plasma to a cardiolipin-coated plate, with anti-β2GPI antibodies present; OD405, one-site inhibition fit
T1 construct: mature; Two preparations of the same native protein were used, serum and purified from plasma; the assay field of each row says which; Where anti-β2GPI antibodies (Cedarlane CL20021HP, peroxidase-conjugated) were present, β2GPI stood as dimeric β2GPI/antibody complexes; also called B2GPI; β2GPI in normal human serum
T1 sequence (looked up): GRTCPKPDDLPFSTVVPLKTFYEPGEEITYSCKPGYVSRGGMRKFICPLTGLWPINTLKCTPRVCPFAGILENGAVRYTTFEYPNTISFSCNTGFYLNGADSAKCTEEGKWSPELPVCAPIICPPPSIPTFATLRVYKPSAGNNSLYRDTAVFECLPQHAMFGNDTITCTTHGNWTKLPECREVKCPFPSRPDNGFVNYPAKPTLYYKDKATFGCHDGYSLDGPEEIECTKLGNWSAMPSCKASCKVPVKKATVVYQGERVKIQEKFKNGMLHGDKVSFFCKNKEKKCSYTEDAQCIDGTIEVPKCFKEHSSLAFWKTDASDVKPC
Method: Next, we analyzed how A1-A1 and A1 inhibit the binding of purified β2GPI to cardiolipin. […] We used β2GPI purified from human plasma available from Haematologic Technologies, Inc. and analyzed the binding and inhibition of the binding of purified β2GPI by A1-A1 and A1 in the presence and in the absence of anti-β2GPI antibodies. […] We incubated 10 nM of β2GPI with various concentrations of the dimeric, A1-A1, and monomeric, A1, inhibitors in the presence of anti-β2GPI antibodies. […] In a separate experiment, we measured the inhibition of β2GPI in the presence of antibodies and compared the measured values to values predicted by the fit of the titration data (FIG. 4C). The measured values were close to those expected from the fit, additionally confirming that in the presence of anti-β2GPI antibodies a much lower concentration of A1-A1 was required to inhibit 50% of the binding of purified β2GPI to cardiolipin compared to A1. […] Similarly to what we observed for β2GPI in serum, the binding of purified β2GPI to cardiolipin in the presence of anti-β2GPI antibodies was inhibited more strongly by the dimeric inhibitor A1-A1 than by A1. Both, A1-A1 and A1, were ineffective in the inhibition of β2GPI in the absence of anti-β2GPI antibodies. […]

[2] = target: T1, Beta2-glycoprotein I (β2GPI), …; test: inhibition of binding of β2GPI in 1% human serum to a cardiolipin-coated plate, without anti-β2GPI antibodies during binding (monomeric β2GPI); OD405, one-site fit
Description: (§1) We compared the dimeric inhibitor, A1-A1, to monomeric A1 on the inhibition of binding of β2GPI/anti-β2GPI antibody complexes to cardiolipin. First, we used pooled normal human serum as a source of β2GPI. The majority of the β2GPI molecules in serum is in the circular form (Agar et al., Blood, 2010). To select the appropriate concentration of β2GPI for the inhibition studies, we measured the binding of β2GPI to cardiolipin (FIG. 2A). To create β2GPI/anti-β2GPI complexes, anti-β2GPI antibodies at constant concentration were added to β2GPI before the samples were applied to cardiolipin. […] We then compared the efficiency of A1-A1 and A1 for the inhibition of the binding of β2GPI in serum to cardiolipin in the presence of anti-β2GPI antibodies (FIG. 2B). 0.04% of human serum, which is in the linear region of the binding curve, was incubated on a cardiolipin-coated surface in the presence of anti-β2GPI antibodies and the inhibitors. In the presence of anti-β2GPI antibodies, the dimeric molecule, A1-A1, inhibited the binding to cardiolipin of β2GPI in serum much stronger than monomeric A1. […] Also, we measured how A1-A1 and A1 inhibited the binding of β2GPI in serum in the absence of anti-β2GPI antibodies (FIG. 3). A 1% solution of human serum was titrated with A1-A1 or A1 and β2GPI bound to cardiolipin was subsequently detected with anti-β2GPI antibodies. […]

[3] = target: T2, isolated recombinant domain V of β2GPI (residues 244-326) with N-terminal HA peptide tag (UniProt P02749 263-345); test: inhibition of binding of 30 nM HA-tagged β2GPI-DV to a cardiolipin-coated plate, with anti-tag (anti-HA) antibody present (dimeric complexes); OD405, one-site fit
T2 construct: range 244-326; Expressed in E. coli from pET15b with a His tag that was removed with TEV protease; The HA-tagged form was used in the cardiolipin assays, where it was detected or dimerized with anti-HA antibody Abcam ab1265; also called β2GPI-DV; individual domain V of β2GPI
T2 sequence: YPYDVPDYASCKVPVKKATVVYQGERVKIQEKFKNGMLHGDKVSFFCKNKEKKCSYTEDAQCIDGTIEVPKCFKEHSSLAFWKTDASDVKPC
Method: As we observed for the inhibition of the binding of β2GPI in human serum and purified β2GPI to cardiolipin-coated surfaces, the isolated domain V was inhibited much stronger by the dimeric inhibitor A1-A1 compared to monomeric A1 in the presence of dimeric β2GPI-DV/anti-tag antibody complexes.
Cardiolipin-coated 96 well plates available as part of the ImmunoWELL cardiolipin IgG test kit (GenBio) were blocked with 0.5% of skim milk and 2% BSA in 20 mM Tris, 100 mM NaCl, 2 mM CaCl₂, pH 7.4. The assay buffer contained 20 mM Tris, 100 mM NaCl, 2 mM CaCl₂, pH 7.4 with 2% BSA and the wash buffer was 20 mM Tris, 100 mM NaCl, 2 mM CaCl₂, pH 7.4. When the purified β2GPI (Haematologic Technologies, Inc.) was used in experiments, 27 mM glycine was added to the assay buffer to account for glycine present in the stock solution of β2GPI. β2GPI bound to cardiolipin was detected with peroxidase-conjugated anti-β2GPI antibodies (Cedarlane, CL20021HP, 2 mg/ml) diluted 1:2500. […] The peroxidase activity of the bound antibodies was detected using 2-2′-azino-di-[3-ethylbenzthizzoline]sulfonate (ABTS) chromogenic reagent by measuring OD at 405 nm. […] The fits of the raw data and the titration data points were then normalized to the maximum binding determined from the fit to facilitate comparison. […]

[4] = target: T1, Beta2-glycoprotein I (β2GPI), …; test: inhibition of binding of β2GPI in 0.04% human serum to a cardiolipin-coated plate, with anti-β2GPI antibodies present (β2GPI/antibody complexes); OD405, one-site fit
Description: as §1

[5] = target: T2, isolated recombinant domain V of β2GPI …; test: inhibition of binding of isolated HA-tagged β2GPI-DV to a cardiolipin-coated plate, without dimerization antibodies; OD405, one-site fit
Method: Cardiolipin-coated 96 well plates available as part of the ImmunoWELL cardiolipin IgG test kit (GenBio) were blocked with 0.5% of skim milk and 2% BSA in 20 mM Tris, 100 mM NaCl, 2 mM CaCl₂, pH 7.4. The assay buffer contained 20 mM Tris, 100 mM NaCl, 2 mM CaCl₂, pH 7.4 with 2% BSA and the wash buffer was 20 mM Tris, 100 mM NaCl, 2 mM CaCl₂, pH 7.4. When the purified β2GPI (Haematologic Technologies, Inc.) was used in experiments, 27 mM glycine was added to the assay buffer to account for glycine present in the stock solution of β2GPI. β2GPI bound to cardiolipin was detected with peroxidase-conjugated anti-β2GPI antibodies (Cedarlane, CL20021HP, 2 mg/ml) diluted 1:2500. […] The peroxidase activity of the bound antibodies was detected using 2-2′-azino-di-[3-ethylbenzthizzoline]sulfonate (ABTS) chromogenic reagent by measuring OD at 405 nm. […] The fits of the raw data and the titration data points were then normalized to the maximum binding determined from the fit to facilitate comparison.
For the inhibition studies, increasing concentrations of A1 or A1-A1 were added to a constant amount of β2GPI ([…]), normal human serum (1%) or β2GPI-DV (130 nM) and incubated for 1 hour at room temperature. […] Then, samples were incubated on wells for an additional 1 hour and, after washing, the bound β2GPI/anti-β2GPI or β2GPI-DV/anti-tag antibody complexes were detected.

| Binder | IC50 [1] [µM] | IC50 [2] [µM] | IC50 [3] [µM] | IC50 [4] [µM] | IC50 [5] [µM] |
| --- | --- | --- | --- | --- | --- |
| B1 | 26 | 189 | 12 | 10 | – |
| B2 | 191 | 176 | 204 | 218 | 188 |
